Laboratory results published in PMC4021333.

Substrate: NCC(=O)N[C@@H](Cc1ccccc1)C(=O)Nc1ccc([N+](=O)[O-])cc1
Experiment: purified protein
Settings: wild type; conditions of the Km measurement not told

B1: DAP BII (Pseudoxanthomonas mexicana) (protein)
chain: GEGMWVPQQLPEIAGPLKKAGLKLSPQQISDLTGDPMGAVVALGGCTASFVSPNGLVVTNHHCAYGAIQLNSTAENNLIKNGFNAPTTADEVSAGPNARVFVLDEITDVTKDAKAAIAAAGDDALARTKALEAFEKKLIADCEAEAGFRCRLYSFSGGNTYRLFKNLEIKDVRLAYAPPGSVGKFGGDIDNWMWPRHTGDFAFYRAYVGKDGKPAAFSKDNVPYQPKHWLKFADQPLGAGDFVMVAGYPGSTNRYALAAEFDNTAQWTYPTIARHYKNQIAMVEAAGKQNADIQVKYAATMAGWNNTSKNYDGQLEGFKRIDAAGQKLREEAAVLGWLKGQGAKGQPALDAHAKLLDLLEQSKATRDRDLTLALFNNTAMLGSATQLYRLSIEREKPNAERESGYQERDLPAIEGGLKQLERRYVAAMDRQLQEYWLNEYIKLPADQRVAAVDAWLGGNDAAAVKRALDRLAGTKLGSTEERLKWFAADRKAFEASNDPAIQYAVAVMPTLLKLEQERKTRAGENLAARPVYLQALADYKKSQGEFVYPDANLSLRITFGNVMGYAPKDGMEYTPFTTLEGVVAKETGQDPFDSPKALLDAVAAKRYGGLEDKRIGSVPVNYLSDLDITGGNSGSPVLDAHGKLVGLAFDGNWESVSSNWVFDPKMTRMIAVDGRYLRWIMQEVYPAPQLLKEMNVGK
For B1, the Km was 1400 µM.
